Test results taken from US20120135461A1, “PRODUCTION OF GLYCOPROTEINS WITH REDUCED O-GLYCOSYLATION COMPRISING THE USE OF AN ALPHA-1,2-MANNOSIDASE” (priority 2010, published 2012).
Entries after “also recorded” stand apart in the source; their conditions may differ.

How the values were obtained:
[1] = test system: O-glycans of α-Her2; assay: O-mannose chain length analysis by HPAEC-PAD of O-glycans released from α-Her2 from fermented MNS1 strains; assay type: cell-based, Pichia pastoris
[2] = test system: O-glycosylated α-Her2 heavy chain (Hc); assay type: cell-based, Pichia pastoris

Row | Molecule | O-Man1 (%) [1] [%] | effect on percentage of O-Man1 / O-mannose chain length relative to no MNS1 control [1] | α-Her2 Hc migration on Western blot relative to non-transformed control [2]
1 | Penicillium citrinum: Penicillium citrinum α-1,2-mannosidase, GenBank BAA08275, SEQ ID NO: 8 (protein, listed as Penicillium citrinum) HPYGETEAVLRSEPKSNQAKADAVKEAFQHAWNGYMKYAFPHDELTPVSNGHADSRNGWGASAVDALSTAVIMGKADVVNAILEHVADIDFSKTSDTVSLFETTIRYLAGMLSGYDLLQGPAKNLVDNQDLIDGLLDQSRNLADVLKFAFDTPSGVPYNNINITSHGNDGATTNGLAVTGTLVLEWTRLSDLTGDEEYAKLSQKAESYLLKPQPSSSEPFPGLVGSSININDGQFADSRVSWNGGDDSFYEYLIKMYVYDPKRFETYKDRWVLAAESTIKHLKSHPKSRPDLTFLSSYSNRNYDLSSQHLTCFDGGSFLLGGTVLDRQDFIDFGLELVDGCEATYNSTLTKIGPDSWGWDPKKVPSDQKEFYEKAGFYISSGSYVLRPEVIESFYYAHRVTGKEIYRDWVWNAFVAINSTCRTDSGFAAVSDVNKANGGSKYDNQESFLFAEVMKYSYLAHSEDAAWQVQKGGKNTFVYNTEAHPISVARN | 83 | reduced O-mannose chain length, but to a lesser extent | –
2 | Aspergillus saitoi: A. saitoi α-1,2-mannosidase, GenBank BAA08634, SEQ ID NO: 12 (protein, listed as Aspergillus saitoi) YPHFGSSQPVLHSSSDTTQSRADAIKAAFSHAWDGYLQYAFPHDELHPVSNGYGDSRNGWGASAVDALSTAVIMRNATIVNQILDHVGKIDYSKTNTTVSLFETTIRYLGGMLSGYDLLKGPVSDLVQNSSKIDVLLTQSKNLADVLKFAFDTPSGVPYNNLNITSGGNDGAKTNGLAVTGTLALEWTRLSDLTGDTTYADLSQKAESYLLNPQPKSAEPFPGLVGSNINISNGQFTDAQVSWNGGDDSYYEYLIKMYVYDPKRFGLYKDRWVAAAQSTMQHLASHPSSRPDLTFLASYNNGTLGLSSQHLTCFDGGSFLLGGTVLNRTDFINFGLDLVSGCHDTYNSTLTGIGPESFSWDTSDIPSSQQSLYEKAGFYITSGAYILRPEVIESFYYAWRVTGQETYRDWIWSAFSAVNDYCRTSSGFSGLTDVNAANGGSRYDNQESFLFAEVMKYSYMAFAEDAAWQVQPGSGNQFVFNTEAHPVRVSST | 86 | reduced O-mannose chain length, but to a lesser extent | faster relative to the non-transformed control but not as fast
3 | Chaetomiun globosum: C. globosum α-1,2-mannosidase, GenBank XP_001227052, SEQ ID NO: 16 (protein, listed as Chaetomium globosum) LPRLEDGGRPGAGREDSFWSKVPLHYPPDSIRPLPTGLPVQYPPIQTTTFPAEEDQAARGRRVQRQKAVRDVFAKCWASYRKLAWGADELTPVSGGRKDPFGGWSATLVDSLDTLWIMDMKTEFDEAVAAADGINFTHTAVDRVNVFETNIRYLGGFLAAFDLSGDKRLLGKATEVGDMLYKAFDTPSHMPITRWDMRAAIKGAKQVASEGLIAEVGTLSMEFTRLSMLTGDPKWFDLAQRITDDMAAQQDSTAVPGLWPLKVNGQKRIFNSGPDFTLGAMADSAYEYLPKMSAMMGGQLPMYQTMYEKAMDAATKHNLFRPMTPTNEDILIAGDVHARENGMEFEARGQHLTCFLGGLMALGGRLYGREKDVIAGRKLTDGCVWTYKAFPQGIMPESFVTVSCPAGDACEWDEGVWKKEVLRKANKDTDGPESNAEAEVIIKKQRLPQGFTAVFDRAYLLRPEAIESVFVLYRVTGKVELLEAAWDMFTAIDKATSTDLANSAIRDVTSTDKPEAKDSMESFWMAETLKYFYLIFSDPELINLNEYVLNTEAHPFRRLLPSP | 89 | reduced O-mannose chain length, but to a lesser extent | faster relative to the non-transformed control but not as fast
4 | Aspergillus oryzae: A. oryzae α-1,2-mannosidase, GenBank BAE57653, SEQ ID NO: 14 (protein, listed as Aspergillus oryzae) YPQFKFEQRVARSNSSESRANAVKEAFVHAWDGYMQYAYPHDELHPISNGVGDSRNGWGASAVDALSTAVIMGNETIVNQILDHIATIDYSKTDDQVSLFETTIRYLGGMLSGYDLLKGPASNLVKDQAKVKTLLDQSQNLADVLKFAFDTPSGIPYNNINITSHGNDGATTNGLAVTGTLVLEWTRLSDLTGDTEYAQLSQKAEDYLLNPSPKSAEPFEGLVGSHINISNGAFADGQVSWNGGDDSFYEYLIKMYVYDPKRFSTYGDRWVKAAESSIKHLASHPEKRPDLTFLASYNDGQYGLSSQHLTCFDGGSFLLGGTVLDRDDFIQFGLDLVKGCHETYNQTLTGIGPESFGWDPKNVPSDQKELYERAGFYISSGAYILRPEVIESFYYAWRITGQEIYREWVWNAFVNINKYCRTDSGFAGLTNVNAANGGGRYDNQESFLFAEVLKYVYLTFAPDNEWQVQRGKGNKFVYNTEAHPVRVAA | 89 | reduced O-mannose chain length, but to a lesser extent | migration is increased; also recorded: faster relative to the non-transformed control but not as fast
